The target of the experiment is OFA alone (control OFA construct, not fused to a chemoattractant) (murine, UniProt P14206 1-295). Kind of experiment: ligand binding-internalization assay on iDC, flow cytometry (data not shown). As to the method:
The ligand binding-internalization assays were performed with iDC or splenocytes (1×10⁵) blocked with mouse serum in PBS containing 2% BSA. Fusion proteins (10-50 μg/ml) were incubated in complete medium for Ih at 37° C. or at 4° C. To detect bound proteins, the cells were incubated with anti-c-myc mAb or isotype-matched, purified mouse IgG1, followed with α-mouse Ig-FITC mAb incubation (Jackson ImmunoResearch Laboratory, Bar Harbor, Me.) for 20 min each, and then fixed with 1% paraformaldehyde. The binding-internalization was assessed via flow cytometry on a FACScan (Becton Dickinson, Franklin Lakes, N.J.) using CellQuest software.
(In flow cytometry, cells or beads pass a laser one at a time.)

B1: CCR6 expressed on murine BM iDC (receptor)
chain: MNSTESYFGTDDYDNTEYYSIPPDHGPCSLEEVRNFTKVFVPIAYSLICVFGLLGNIMVVMTFAFYKKARSMTDVYLLNMAITDILFVLTLPFWAVTHATNTWVFSDALCKLMKGTYAVNFNCGMLLLACISMDRYIAIVQATKSFRVRSRTLTHSKVICVAVWFISIIISSPTFIFNKKYELQDRDVCEPRYRSVSEPITWKLLGMGLELFFGFFTPLLFMVFCYLFIIKTLVQAQNSKRHRAIRVVIAVVLVFLACQIPHNMVLLVTAVNTGKVGRSCSTEKVLAYTRNVAEVLAFLHCCLNPVLYAFIGQKFRNYFMKIMKDVWCMRRKNKMPGFLCARVYSESYISRQTSETVENDNASSFTM
notes: whole, on cells
Regarding B1, the binding result is “no binding”.
